Measured values as given in publication PMC4134374.

How the values were obtained:
[1] = molecular target: TMR-labelled wt H4-tail peptide; experiment: fluorescence polarisation
[2] = molecular target: TMR-labelled 2RA H4-tail peptide; experiment: fluorescence polarisation

## wt Acf1 (accessory subunit of human ACF), isolated (from UniProt Q9NRL2 1-1556) (natural protein)
[1]
  Kd: 3 nM
[2]
  Kd: 41 nM

## ΔC-term Acf1 (residues 1423-1556 deleted) (from UniProt Q9NRL2 1-1422) (domain or fragment)
[1]
  Kd: 2 nM
